Measurements taken from patent US20210371503A1 (UNIVERSITY OF COLOGNE, published 2021).
Like-named read-outs stand apart in the source and are kept apart here.

Assays:
[1] = biological target: T1, receptor-binding domain (RBD) of the spike (S) protein of SARS-CoV-2 (SARS-CoV-2, UniProt P0DTC2 319-541); assay: ELISA, coated RBD [cont'd]
T1 construct: also called soluble RBD

[2] = biological target: S1 (truncated S1 subunit); assay: ELISA, coated truncated S1 [cont'd]
[3] = biological target: T1, receptor-binding domain (RBD) of the …; assay: ELISA, coated RBD
[4] = biological target: S1 (truncated S1 subunit); assay: ELISA, coated truncated S1
[5] = biological target: T1, receptor-binding domain (RBD) of the …; assay: assay not stated; row Binding Affinity Spike RBD
[6] = biological target: T1, receptor-binding domain (RBD) of the …
[7] = biological target: T1, receptor-binding domain (RBD) of the …; remark: listed apart in the source
[8] = biological target: T1, receptor-binding domain (RBD) of the …; assay: ELISA, coated RBD [cont'd]; remark: listed apart in the source
[9] = biological target: S1 (truncated S1 subunit); assay: ELISA, coated truncated S1 [cont'd]; remark: listed apart in the source
[10] = biological target: T1, receptor-binding domain (RBD) of the …; assay: ELISA, coated RBD [cont'd]; remark: listed apart in the source
[11] = biological target: S1 (truncated S1 subunit); assay: ELISA, coated truncated S1 [cont'd]; remark: listed apart in the source

| Binder | EC50 [1] | EC50 [2] | Kd [6] | other results |
| --- | --- | --- | --- | --- |
| MnC1t3p1_G9 (antibody, V domains shown) VH: EVQLLESGGGLVQPGGSLRLSCAASGFTFRNYAMTWVRQAPGKGLEWVSGISDSGDRTYNADSVKGRFSISRDNSKNTLHLQMNSLRAEDTAVYYCALASGSYFGGANYWGQGTLVTVSS VL: QAVVTQEPSLTVSPGGTVTLTCGSSTGPVTSDHYPYWFQQKPGQAPTTLIYDTNNKHSWTPARFSGSLLGGKAALTLSGAQPEDEAEYYCLLSYTGARVFGGGTKLTVL | < 100 µg/mL | < 100 µg/mL |  |  |
| CnC2t1p1_E8 (antibody, V domains shown) VH: QVQLVQSGAEVKNPGASVKVSCKASGYIFTNYYIHWVRQAPGQGLEWVGWIHSLSGGTSYAQKFQGRVTLTRDASIRTAYMELSRLGSDDTALYYCARASVSTITDFDYWGQGTLVAVSS VL: QSALTQPASVSGSPGQSITISCTGTSGDVGSYNLVSWYQQHPGKAPKLVIYEATKRPSGVSNRFFASKSGNTASLTISGLQAEDEADYYCCSYAGVRTVVFGGGTKLTVL |  |  |  | EC50 [3]: < 100 µg/mL; EC50 [4]: < 100 µg/mL |
| CnC2t1p1_G6 (antibody, V domains shown) VH: QVQLVQSGAEVKKPGASVKVSCKASGYIFTNYYIHWVRQAPGQGLEWVGWIHSLSGGTSYAQKFQGRVTLTRDAPIRTAYMELSGLGSDDTAVYYCARASVATITDFDYWGQGTLVAVSS VL: QSALTQPASVSGSPGQSITISCTGTSGDIGSYNLVSWYQQYPGKAPKLIIYEASKRPSGVSNRFFASKSGNTASLTISGLQAEDEADYYCCSYAGVRTVVFGGGTKLTVL |  |  |  | EC50 [3]: < 100 µg/mL; EC50 [4]: < 100 µg/mL |
| DZIF-10c (antibody, V domains shown, also called HbnC3t1p1_F4(-K); EX14870) VH: QVQLVESGGGVVQPGRSLRLSCAATGFTFRRYGMHWVRQAPGKGLEWVAGILFDGSNKYYVDSVKGRFTISRDSSRNTLYLQLNSLRREDTAVYYCAKGGDYEWELLESWGQGTLVTVSS VL: DIQMTQSPSTVSASVGDRVTITCRASQSIDNWLAWYQEKPGKAPKVLIYKASSLESGVPSRFSGRGSGTEFTLTISSLQPGDFATYYCQHYHSFPLTFGGGTKVDIKR |  |  |  | Kd [5]: 2 nM |
| MnC2t1p1_A3 (antibody, V domains shown) VH: EVQLVESGGGLVQPGGSLRLSCAASGFTVSSNYMSWVRQAPGRGLEWVSVIYSGGSTFYADSVKGRFTISRDNSKNTLYLQMNSLRPEDTAVYYCATGARFGESPFDYWGQGTLVTVSS VL: DIQMTQSPSSVSASVGDRVTITCRASQGISSWLAWYQQKPGKAPKLLIYAASSLQSGVPSRFSGSGSGTDFTLTISSLQPEDFATYYCQQANSFPGTFGQGTKVEIK | < 100 µg/mL | < 100 µg/mL | 0.7 nM |  |
| MnC2t1p1_C5 (antibody, V domains shown) VH: EVQLVESGGGLVQPGGSLRLSCAASGFTVSSNYMSWVRQAPGKGLEWVSVIYSGGSTYYADSVKGRFTISRDNSKNTLYLQMNSLRAEDTAVYYCATGARFGESPFDYWGQGTLVTVSS VL: DIQMTQSPSSVSASVGDRVTITCRASQGISSWLAWYQQKPGKAPKLLIYAASSLQSGVPSRFSGSGSGTDFTLTISSLQPEDFATYYCQQANSFPGTFGQGTKVEIK | < 100 µg/mL | < 100 µg/mL |  |  |
| MnC2t2p1_C11 (antibody, V domains shown) VH: QVQLVQSGAEVKKPGSSVKVSCKASGGTFSRYTIIWVRQAPGQGLEWMGRIIPILDIANYAQKFQGRVTITADKSTSTAYMELSSLRSEDTAVYYCAREGGLDYFGSRNSGWTYTWFDPWGQGTLVTVSS VL: DIQMTQSPSSLSASVGDRVTITCRASQNISSYLNWYQQKPGKAPNLLIYAASSLQSGVPPRFSGSGSGTDFTLTISSLQPEDFATYYCQQSYSTLYSFGQGTKLEIK | < 100 µg/mL | < 100 µg/mL | 0.02 nM |  |
| MnC4t1p1_A11 (antibody, V domains shown) VH: EVQLVESGGGLVQPGGSLRLSCAASGFTFSSYSMNWVRQAPGKGLEWVSYISSSSNTRYYTDSVMGRFTISRDNAKNSLFLQMNSLRAEDTAVYYCASSKGFCSGGSCSDYWGQGTLVTVSS VL: EIVLTQSPGTLSLSPGERATLSCRASQSVSSSYLAWYQQKPGQAPRLLIYGVSSRATGIPDRFSGSGSGTDFTLTISRLEPEDFVVYYCHQYGSSPWTFGQGTKVEIK | < 100 µg/mL | < 100 µg/mL |  | Kd [7]: 2000 nM |
| FnC1t1p2_A5 (antibody, V domains shown) VH: QVQLVQSGAEVKKPGASVKVSCKASGYTFTSYDINWVRQATGQGLEWMGWMNPNSGNTGYAQKFQGRVTMTRNTSISTAYMELSSLRSEDTAVYYCARATTDCSSTSCWSLDFWSGYYTGGREKIFDYWGQGTLVTVSS VL: not shown |  |  |  | binding result [3]: no binding; EC50 [4]: > 1000 µg/mL |
| MnC4t2p1_B3 (antibody, V domains shown) VH: EVQLVESGGHLVQPGRSLRLSCAASGFTFDDYAMHWVRQVPGKGLEWVSGISWNGGILDYADSVKGRFTISRDNAKNSLYLHMRSLRTDDTALYYCAKDLRRQDYYADWYFDLWGRGTLVTVSS VL: DIQMIQSPSSVSASVGDRVTITCRASQGISSWLAWYQQKPGKAPKLLIYAASTLLSAVPSRFSGSGSGTDFTLTISSLQPEDFATYYCQQGNSFPFTFGPGTIVDV | < 100 µg/mL | < 100 µg/mL | 0.09 nM |  |
| MnC4t2p1_E6 (antibody, V domains shown) VH: EVQLVESGGHLVQPGRSLRLSCAASGFTFDDYAMHWVRQVPGKGLEWVSGISWNGGILGYADSVKGRFTISRDNAKNSLYLQMRSLRTDDTALYYCAKDLRRQDYYADWYFDLWGRGTLVTVSS VL: DIQMTQSPSSVSASVGDRVTITCRASQGISSWLAWYQQKPGKAPKLLIYAASTLLSAVPSRFSGSGSGTDFTLTISSLQPEDFATYYCQQGNSFPFTFGPGTKVDV |  |  |  | EC50 [8]: < 100 µg/mL; EC50 [9]: < 100 µg/mL |
| FnC1t2p1_D4 (antibody, V domains shown) VH: QVQLVQSGSELKKPGASVKVSCKASGYTFLRFAMNWLRQAPGQGLEWMGWIDTNTGTPTYAQGFTGRFVFSLDTSVSTAYLQISSLKAEDTAVYYCARSLRGANLVPWGQGTLVTVSS VL: DIQMTQSPSSLSASVGDRVTITCQASQDVSNYLNWYQQQPGKAPKLLIYDAFNLETGVPSRFSGSGSGTDFTFTISSLQPEDIATYYCQQYDNLPLTFGGGTKVEIK |  |  | 0.2 nM | EC50 [3]: < 100 µg/mL; EC50 [4]: < 100 µg/mL |
| FnC1t2p1_G5 (antibody, V domains shown) VH: QVQLVQSGSELKKPGASVKVSCKASGYTFLRFAMNWLRQAPGQGLEWMGWIDTNTGTPTYAQGFTGRFVFSLDTSVSTAYLQISSLKAEDTAVYYCARSLRGANLVPWGQGTLVTVSS VL: DIQMTQSPSSLSASVGDRVTITCQASQDVSNYLNWYQQQPGKAPKLLIYDAFNLETGVPSRFSGSGSGTDFTFTISSLQPEDIATYYCQQYDNLPLTFGGGTKVEIK |  |  | 0.1 nM | EC50 [10]: < 100 µg/mL; EC50 [11]: < 100 µg/mL |
| MnC4t2p2_A4 (antibody, V domains shown) VH: QVQLVQSGSELKKPGASVKISCKASGYIFINYAMNWVRQAPGQGLEWMGWINTNTGNPTYAQDFTGRFVFSLDTSLSTAYLQISSLEAEDTAVYYCAKIGSRNSLGVWGQGTLVTVSA VL: EIVLTQSPGTLSLSPGERATLSCRASHSVDRSYLAWYQQKPGLAPRLLIYGASSRATGIPDRFSGSGSGTDFTLTISRLEPEDFALYYCQHFGTSSVTFGRGTRLEIK |  |  | 14 nM | EC50 [8]: < 100 µg/mL; EC50 [9]: < 100 µg/mL |
